Experimental data from US20260139263A1 (IOWA STATE UNIVERSITY RESEARCH FOUNDATION, published 2026).
Blank lines part the entries; values can stand above or below the binder they belong to. No end group written: not given here. nYFP = N-terminal end of yellow fluorescent protein

How the values were obtained:
AtNF-YC4-cYFP = biological target: T1, AtNF-YC4-cYFP (Arabidopsis thaliana, UniProt Q9FMV5 1-250); assay: in vivo co-expression in tobacco leaf
T1 construct: BiFC construct expressed in tobacco leaves; AtNF-YC4 is fused in-frame to the N-terminus of cYFP; not shown: cYFP (C-terminal end of yellow fluorescent protein)
T1 sequence (looked up): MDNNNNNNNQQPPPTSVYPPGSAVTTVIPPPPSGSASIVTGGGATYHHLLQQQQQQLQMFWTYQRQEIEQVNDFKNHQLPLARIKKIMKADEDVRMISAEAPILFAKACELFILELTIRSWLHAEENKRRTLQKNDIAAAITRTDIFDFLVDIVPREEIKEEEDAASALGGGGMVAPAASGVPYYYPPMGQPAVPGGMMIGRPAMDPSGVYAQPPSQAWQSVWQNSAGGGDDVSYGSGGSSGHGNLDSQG
Protocol: QQS and AtNF-YC4 were fused in-frame to the N-terminus of nYFP (N-terminal end of yellow fluorescent protein (YFP)) and cYFP (C-terminal end of YFP), respectively. Agrobacterium strain GV3101 transformed with QQS-nYFP and AtNF-YC4-cYFP constructs were co-infiltrated into Nicotiana tabacum. The reconstituted YFP signal was observed 48 h after infiltration under a Zeiss Axioplan II fluorescence microscope.

[1] = biological target: T2, Arabidopsis Nuclear Factor YB7 (AtNF-YB7), recombinant, tagged, for pull-down (Arabidopsis, UniProt Q9SIT9 1-215); assay: GST pull-down
T2 construct: Contains a histone-fold-like domain; also called AtNF-YB7-GST fusion protein
T2 sequence (looked up): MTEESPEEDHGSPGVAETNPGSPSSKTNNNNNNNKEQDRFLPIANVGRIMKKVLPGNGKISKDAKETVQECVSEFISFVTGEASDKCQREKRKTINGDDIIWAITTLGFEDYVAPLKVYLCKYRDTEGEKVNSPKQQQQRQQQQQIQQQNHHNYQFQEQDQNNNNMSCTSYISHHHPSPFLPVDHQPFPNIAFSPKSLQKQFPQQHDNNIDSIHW

binding result (AtNF-YC4-cYFP): binds
B1: QQS-nYFP (other)
chain: MKTNREQEIYVERSFKPNNSTIQNLMDIERFILPHTSTSGVARLKMRVISWVGLQFYNY-nYFP
modifications: also: nYFP limits and sequence not given here
notes: BiFC construct expressed in tobacco leaves; QQS is fused in-frame to the N-terminus of nYFP; not shown: nYFP (N-terminal end of yellow fluorescent protein)

binding result [1]: no binding
B2: GST-QQS fusion protein (other)
chain: MKTNREQEIYVERSFKPNNSTIQNLMDIERFILPHTSTSGVARLKMRVISWVGLQFYNY
modifications: also: fused to GST tag, position and linker not given here
notes: also called GST-tagged QQS; not shown: glutathione-S-transferase (GST) tag
